± gives the uncertainty stated by the source.
B1: POU domain, class 4, transcription factor 1, residues 266 to 347; numbered along this chain, Q01851 (parent)
chain: RELEAFAERFKQRRIKLGVTQADVGSALANLKIPGVGSLSQSTICRFESLTLSHNNMIALKPILQAWLEEAEGAQREKMNKP

Variants of: B1
Assay: abundance fitness (aPCA) (normalised: wild type 0, dead -1); higher = more abundant; growth selection in yeast, the domain comes from the species named
Settings: Homo sapiens

Variant	abundance fitness
RELEAFAERFKQRRIKLGVTQADVGSALANLKIPGVGSLSQSTICRFESLTLSHNNMIALKPILLAWLEEAEGAQREKMNKP	-0.073 ± 0.026
RELEAFAERFKQRRIKLGVTQADVGSALANLKIPGVGSLSQSTICRFESLTLSHNNMIALKPILMAWLEEAEGAQREKMNKP	-0.056 ± 0.032
RELEAFAERFKQRRIKLGVTQADVGSALANLKIPGVGSLSQSTICRFESLTLSHNNMIALKPILNAWLEEAEGAQREKMNKP	-0.078 ± 0.044
RELEAFAERFKQRRIKLGVTQADVGSALANLKIPGVGSLSQSTICRFESLTLSHNNMIALKPILPAWLEEAEGAQREKMNKP	-0.98 ± 0.079
RELEAFAERFKQRRIKLGVTQADVGSALANLKIPGVGSLSQSTICRFESLTLSHNNMIALKPILRAWLEEAEGAQREKMNKP	-0.162 ± 0.023
RELEAFAERFKQRRIKLGVTQADVGSALANLKIPGVGSLSQSTICRFESLTLSHNNMIALKPILTAWLEEAEGAQREKMNKP	-0.06 ± 0.029
RELEAFAERFKQRRIKLGVTQADVGSALANLKIPGVGSLSQSTICRFESLTLSHNNMIALKPILWAWLEEAEGAQREKMNKP	-0.144 ± 0.029
RELEAFAERFKQRRIKLGVTQADVGSALANLKIPGVGSLSQSTICRFESLTLSHNNMIALKPILYAWLEEAEGAQREKMNKP	-0.075 ± 0.059
RELEAFAERFKQRRIKLGVTQADVGSALANLKIPGVGSLSQSTICRFESLTLSHNNMIALKPILQCWLEEAEGAQREKMNKP	-0.049 ± 0.039
RELEAFAERFKQRRIKLGVTQADVGSALANLKIPGVGSLSQSTICRFESLTLSHNNMIALKPILQDWLEEAEGAQREKMNKP	0.013 ± 0.037
RELEAFAERFKQRRIKLGVTQADVGSALANLKIPGVGSLSQSTICRFESLTLSHNNMIALKPILQEWLEEAEGAQREKMNKP	0.012 ± 0.029
RELEAFAERFKQRRIKLGVTQADVGSALANLKIPGVGSLSQSTICRFESLTLSHNNMIALKPILQFWLEEAEGAQREKMNKP	-0.113 ± 0.048
RELEAFAERFKQRRIKLGVTQADVGSALANLKIPGVGSLSQSTICRFESLTLSHNNMIALKPILQGWLEEAEGAQREKMNKP	-0.029 ± 0.022
RELEAFAERFKQRRIKLGVTQADVGSALANLKIPGVGSLSQSTICRFESLTLSHNNMIALKPILQHWLEEAEGAQREKMNKP	0.001 ± 0.059
RELEAFAERFKQRRIKLGVTQADVGSALANLKIPGVGSLSQSTICRFESLTLSHNNMIALKPILQIWLEEAEGAQREKMNKP	-0.141 ± 0.05
RELEAFAERFKQRRIKLGVTQADVGSALANLKIPGVGSLSQSTICRFESLTLSHNNMIALKPILQKWLEEAEGAQREKMNKP	0.044 ± 0.035
RELEAFAERFKQRRIKLGVTQADVGSALANLKIPGVGSLSQSTICRFESLTLSHNNMIALKPILQLWLEEAEGAQREKMNKP	-0.125 ± 0.029

Variant	abundance fitness
RELEAFAERFKQRRIKLGVTQADVGSALANLKIPGVGSLSQSTICRFESLTLSHNNMIALKPILQMWLEEAEGAQREKMNKP	-0.041 ± 0.039
RELEAFAERFKQRRIKLGVTQADVGSALANLKIPGVGSLSQSTICRFESLTLSHNNMIALKPILQNWLEEAEGAQREKMNKP	-0.017 ± 0.05
RELEAFAERFKQRRIKLGVTQADVGSALANLKIPGVGSLSQSTICRFESLTLSHNNMIALKPILQPWLEEAEGAQREKMNKP	-0.619 ± 0.058
RELEAFAERFKQRRIKLGVTQADVGSALANLKIPGVGSLSQSTICRFESLTLSHNNMIALKPILQQWLEEAEGAQREKMNKP	-0.046 ± 0.035
RELEAFAERFKQRRIKLGVTQADVGSALANLKIPGVGSLSQSTICRFESLTLSHNNMIALKPILQRWLEEAEGAQREKMNKP	-0.022 ± 0.023
RELEAFAERFKQRRIKLGVTQADVGSALANLKIPGVGSLSQSTICRFESLTLSHNNMIALKPILQSWLEEAEGAQREKMNKP	-0.005 ± 0.031
RELEAFAERFKQRRIKLGVTQADVGSALANLKIPGVGSLSQSTICRFESLTLSHNNMIALKPILQTWLEEAEGAQREKMNKP	-0.012 ± 0.033
RELEAFAERFKQRRIKLGVTQADVGSALANLKIPGVGSLSQSTICRFESLTLSHNNMIALKPILQVWLEEAEGAQREKMNKP	-0.12 ± 0.026
RELEAFAERFKQRRIKLGVTQADVGSALANLKIPGVGSLSQSTICRFESLTLSHNNMIALKPILQWWLEEAEGAQREKMNKP	-0.192 ± 0.031
RELEAFAERFKQRRIKLGVTQADVGSALANLKIPGVGSLSQSTICRFESLTLSHNNMIALKPILQYWLEEAEGAQREKMNKP	-0.104 ± 0.048
RELEAFAERFKQRRIKLGVTQADVGSALANLKIPGVGSLSQSTICRFESLTLSHNNMIALKPILQAALEEAEGAQREKMNKP	-0.406 ± 0.069
RELEAFAERFKQRRIKLGVTQADVGSALANLKIPGVGSLSQSTICRFESLTLSHNNMIALKPILQACLEEAEGAQREKMNKP	-0.939 ± 0.32
RELEAFAERFKQRRIKLGVTQADVGSALANLKIPGVGSLSQSTICRFESLTLSHNNMIALKPILQADLEEAEGAQREKMNKP	-0.425 ± 0.23
RELEAFAERFKQRRIKLGVTQADVGSALANLKIPGVGSLSQSTICRFESLTLSHNNMIALKPILQAELEEAEGAQREKMNKP	-0.806 ± 0.13
RELEAFAERFKQRRIKLGVTQADVGSALANLKIPGVGSLSQSTICRFESLTLSHNNMIALKPILQAFLEEAEGAQREKMNKP	0.018 ± 0.15
RELEAFAERFKQRRIKLGVTQADVGSALANLKIPGVGSLSQSTICRFESLTLSHNNMIALKPILQAGLEEAEGAQREKMNKP	-0.727 ± 0.071
RELEAFAERFKQRRIKLGVTQADVGSALANLKIPGVGSLSQSTICRFESLTLSHNNMIALKPILQAKLEEAEGAQREKMNKP	-0.606 ± 0.17

— the Human Domainome abundance scans (Beltran et al. 2025)
